The target of assay [1] is fully human monoclonal agonistic anti-TRAIL-R2 antibody KMTR2 (human).
Assay [2] deals with T1, ecTRAIL-R2:Fc fusion protein (human, UniProt O14763).
T1 construct: TRAIL receptor 2 (TRAIL-R2, DR5), human, extracellular region, residues Ala54-Lys181; also called ecTRAIL-R2 fused with Fc; soluble TRAIL-R2 fused with the Fc region of IgG; source: CHO cells, purified (HiTrap rProtein A FF); not shown: Fc (human IgG1), C-terminal, kept
Put plainly: SEC; antibody mixed with ecTRAIL-R2:Fc in PBS at a molar ratio of 1:1, 30 min 37 °C; Superdex 200 10/300 GL in D-PBS(-). The following applies: both partners purified. (In general: SEC sorts molecules by how far they enter the pores of the column.)

Assay [3] has as its target T2, endogenous TRAIL-R2 in Colo205 cells (human (endogenous in Colo205), UniProt O14763).
T2 construct: TRAIL receptor 2 (TRAIL-R2, DR5), endogenous on the human colorectal adenocarcinoma cell line Colo205; also called DR5; membrane TRAIL-R2; source: endogenous, on Colo205 cells
Kind of assay: immunostaining of cells or tissue; Colo205 cells incubated with gel filtration fractionated monomeric antibody, 100 ng/mL, 1.5 h 37 °C; Alexa 488-labeled anti-human IgG Fab; confocal microscopy. Conditions: one partner purified.

Assay [4] deals with T3, extracellular region of TRAIL-R2 (ecTRAIL-R2) (human, UniProt O14763).
T3 construct: TRAIL receptor 2 (TRAIL-R2, DR5), human, extracellular region, residues Ala54-Lys181; also called DR5; source: CHO cells as ecTRAIL-R2:Fc fusion, purified (rProtein A), digested with enterokinase, cation-exchange chromatography; not shown: Fc (human IgG1), C-terminal, cleaved
Put plainly: SEC-MALS; ecTRAIL-R2 mixed with excess KMTR2-Fab, RT 1 h; Superdex 200 HR 10/30, 20 mM HEPES pH 7.2, 0.2 M NaCl; multi-angle light scattering (mini-DAWN). Conditions: both partners purified.

In assay [1], “fully human monoclonal agonistic anti-TRAIL-R2 antibody KMTR2” came in with an inhibition of the proliferation of Colo205 cells (MTS), 1-100 ng/mL, without cross-linking reagent of 6 to 7 ng/mL.

B1: KMTR2 LkN53R mutant (Asn53 to Arg in the light kappa chain) (antibody, V domains shown)
VH: QVQLVQSGAEMKKPGASVKVSCKTSGYTFTNYKINWVRQAPGQGLEWMGWMNPDTDSTGYPQKFQGRVTMTRNTSISTAYMELSSLRSEDTAVYYCARSYGSGSYYRDYYYGMDVWGQGTTVTVSS
VL: EIVLTQSPATLSLSPGERATLSCRASQSVSSYLAWYQQKPGQAPRLLIYDASRRATGIPARFSGSGSGTDFTLTISSLEPEDFAVYYCQQRSNWPLTFGGGTKVEIK
notes: as the heavy chain of m5; Fab part (Gln1-Ser226) in PDB 3X3F and 3X3G; as the light kappa chain of m5 (Glu1-Cys214 in PDB 3X3F and 3X3G) with Asn53 changed to Arg; Whole IgG made from the N5KG4-KMTR2 vector by site-directed mutagenesis; copies: 2 + 2
Consider B1, for which the binding result in assay [2] and in assay [3] was “binds” in each case.

B2: Fab fragment derived from KMTR2 (KMTR2-Fab) (Fab, V domains shown)
VH: QVQLVQSGAEMKKPGASVKVSCKTSGYTFTNYKINWVRQAPGQGLEWMGWMNPDTDSTGYPQKFQGRVTMTRNTSISTAYMELSSLRSEDTAVYYCARSYGSGSYYRDYYYGMDVWGQGTTVTVSS
VL: EIVLTQSPATLSLSPGERATLSCRASQSVSSYLAWYQQKPGQAPRLLIYDASNRATGIPARFSGSGSGTDFTLTISSLEPEDFAVYYCQQRSNWPLTFGGGTKVEIK
notes: heavy chain of KMTR2-Fab; light kappa chain of KMTR2; Fully human monoclonal antibody from KM mice; source: papain digestion of recombinant KMTR2, purified by cation-exchange chromatography
The term stoichiometry N denotes a count of units in the complex or per binding partner. With B2, the “stoichiometry N” value in assay [4] stood at 1.

The values above are taken from article PMC4682084 (Scientific Reports, 2015).
